Source: patent publication US20100196267A1

Assays:
HLA-DR (human) [1] = test: indirect FACS, FITC-GAH Fc 2nd Ab, Raji cells (none 6.8); control antibody
HLA-DR (human) [2] = test: indirect FACS, FITC-GAH Fc 2nd Ab, Daudi cells (none 3.1); control antibody
HLA-DR (human) [3] = test: indirect FACS, FITC-GAH Fc 2nd Ab, Ramos cells (none 3.1); control antibody
HLA-DR (human) [4] = test: indirect FACS, FITC-GAH Fc 2nd Ab, Namalwa cells (none 2.5); control antibody
HLA-DR (human) [5] = test: indirect FACS, FITC-GAH Fc 2nd Ab, SU-DHL-6 cells (none 4.6); control antibody
HLA-DR (human) [6] = test: indirect FACS, FITC-GAH Fc 2nd Ab, WSU-FSCCL cells (none 2.6); control antibody
[7] = molecular target: antigen on dog lymphoma cells recognised by L243 and hL243 (dog); test: flow cytometry on dog lymphoma aspirate, humanized MAbs (none 3.24); control antibody
[8] = molecular target: antigen on dog lymphoma cells recognised by L243 and hL243 (dog); test: flow cytometry on dog lymphoma aspirate, humanized MAbs (none 4.48); control antibody
HLA-DR (human) [9] = test: indirect flow cytometry on Namalwa cells, FITC-GAH 2nd Ab (none 2.52); control antibody
HLA-DR (human) [10] = test: indirect flow cytometry, FITC-GAH Fc 2nd Ab, RL cells (none 2.4); negative control antibody
HLA-DR (human) [11] = test: indirect flow cytometry, FITC-GAH Fc 2nd Ab, Raji cells (none 6.9); negative control antibody
HLA-DR (human) [12] = test: indirect flow cytometry, FITC-GAH Fc 2nd Ab, Daudi cells (none 3.2); negative control antibody
HLA-DR (human) [13] = test: indirect flow cytometry, FITC-GAH Fc 2nd Ab, Ramos cells (none 3.1); negative control antibody
HLA-DR (human) [14] = test: indirect flow cytometry, FITC-GAH Fc 2nd Ab, Namalwa cells (none 2.6); negative control antibody
HLA-DR (human) [15] = test: indirect flow cytometry, FITC-GAH Fc 2nd Ab, SU-DHL-6 cells (none 4.6); negative control antibody
HLA-DR (human) [16] = test: indirect flow cytometry, FITC-GAH Fc 2nd Ab, WSU-FSCCL cells (none 2.7); negative control antibody
HLA-DR (human) [17] = test: indirect flow cytometry on Namalwa cells, FITC-GAM 2nd Ab (none 2.91); control antibody
[18] = molecular target: human serum complement (human); test: cell-based or functional assay

B1: hMN-14 (antibody, INN chains, looked up, V domains shown)
VH: EVQLVESGGGVVQPGRSLRLSCSASGFDFTTYWMSWVRQAPGKGLEWIGEIHPDSSTINYAPSLKDRFTISRDNAKNTLFLQMDSLRPEDTGVYFCASLYFGFPWFAYWGQGTPVTVSS
VL: DIQLTQSPSSLSASVGDRVTITCKASQDVGTSVAWYQQKPGKAPKLLIYWTSTRHTGVPSRFSGSGSGTDFTFTISSLQPEDIATYYCQQYSLYRSFGQGTKVEIKR
Geometric Mean Fluorescence (HLA-DR (human) [1]): 6.96
Geometric Mean Fluorescence (HLA-DR (human) [2]): 3.16
Geometric Mean Fluorescence (HLA-DR (human) [3]): 3.13
Geometric Mean Fluorescence (HLA-DR (human) [4]): 2.36
Geometric Mean Fluorescence (HLA-DR (human) [5]): 4.94
Geometric Mean Fluorescence (HLA-DR (human) [6]): 2.66
Mean FL [7]: 3.24
% [8]: 4.63%
GEO MEAN Fluorescence (HLA-DR (human) [9]): 2.49
Geometric Mean Fluorescence (HLA-DR (human) [10]): 2.8
Geometric Mean Fluorescence (HLA-DR (human) [11]): 7
Geometric Mean Fluorescence (HLA-DR (human) [12]): 3.2
Geometric Mean Fluorescence (HLA-DR (human) [13]): 3.1
Geometric Mean Fluorescence (HLA-DR (human) [14]): 2.4
Geometric Mean Fluorescence (HLA-DR (human) [15]): 4.9
Geometric Mean Fluorescence (HLA-DR (human) [16]): 2.7

B2: MN14 (murine) (antibody, from a related filing, V domains shown)
VH: EVKLLESGGGLVQSGGSLKLSCAASGFDFTTYWMSWVRQAPGKGLEWIGEIHPDSSTINYAPSLKDKFIVSRDNAKNTLYLQMSKVRSEDTALYYCASLYFGFPWFAYWGQGTPVTVSA
VL: EIQLTQSHKMMSTSVGDRVSITCKASQDVGTSVAWYQQRPGQSPKLLIYWTSTRHTGVPDRFTGSVSGTDFTLTITNVQSEDLADYFCQQYSLYRSFGGGTKLEIK
GEO MEAN Fluorescence (HLA-DR (human) [17]): 3.32

B3: hL243γ1 (antibody, human IgG1, V domains shown)
VH: QVQLQQSGSELKKPGASVKVSCKASGFTFTNYGMNWVKQAPGQGLKWMGWINTYTREPTYADDFKGRFAFSLDTSVSTAYLQISSLKADDTAVYFCARDITAVVPTGFDYWGQGSLVTVSS
VL: DIQLTQSPSSLSASVGDRVTITCRASENIYSNLAWYRQKPGKAPKLLVFAASNLADGVPSRFSGSGSGTDYTFTISSLQPEDIATYYCQHFWTTPWAFGGGTKLQIKR
complement-mediated cytotoxicity (CDC) on Daudi cells, resazurin viability, EC50 [18]: 2.6 nM
